Data on 74 sequences can be found in the supplement of paper PMC12636428.

In the data set the test system is Saccharomyces cerevisiae. The data set can be described thus: transcriptional activation domain activity (GFP:mCherry ratio, weighted mean of sorted bins, harmonized to initial dataset scale) (arbitrary fluorescence ratio units); higher = stronger transcriptional activation. Particulars: beta-estradiol 1 µM; induction time 4 h. The procedure, abridged:
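Barcoded protein tiles fused to an estradiol-inducible synthetic transcription factor were integrated at the yeast URA3 locus, in diploids carrying a GFP reporter. Cultures were diluted 1:5 into SC with 1 uM beta-estradiol, held 4 hours at 30 °C, sorted into 8 bins by GFP:mCherry ratio, and barcodes sequenced. Tiles under 50 reads were discarded. Activation activity is the read-weighted mean of bin median fluorescence, averaged across barcodes, then linearly mapped onto the initial dataset scale.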

For the sequence “SHTAEPSDADGEGTRATRRAKTKSKSTGKSREAGKRSNGARKGGGRADSGGKD”, the “transcriptional activation domain activity” value was found to be 46800.
For “SATARTTTTTRTATSTTTTAKPSTTTRPSTTTTTTAARRPGTTTTTPARTSVT”, the “transcriptional activation domain activity” value worked out at 38700.
To “MSYFVFPLLLPSLPRVLPRHSICILHFLLHFRTPPSPNLTHSLLIFLFLLLVR” belongs 64000.
The value for “HLLVVAPLILAYLTVDDLSNLRLRLLGRCLRLLAISLAFLCACCCTSSSTPST” was 58200.
To “MSWQKVHSLFFLYFILPHGGFLFLVIRNIFFFFTYDLVLLWSFKFLLHLYVIF” belongs 59800; to “NSLYLLPTAMTGEKPVADPLTLIRYILVWFPHIWCVICIHCHWPYFLFLNLTD”, 78400.
For the sequence “IAKEIGKRLGFDENSEISYLAGIWSHCIAQQLIWNVAGGLLRVRGWLWKINLS”, the “transcriptional activation domain activity” value was found to be 79900.
To “YIFMISLSSYSLSLINTLVSFGLLLLYTPSYRLWGWNPPFRAPKIIIFLFFLS” belongs 48300; to “KLIYVRILGYLLHHMPSEAGLQQLVTEIVSFRTEEAFLKLGLLYFEHAIRLFR”, 36800.
Take “MVAAATARTRRAATVATRRTRPVVMAMAVVVATRNRRATTRAAGIRQAGIRRV”: the “transcriptional activation domain activity” value stood at 45900.
Take “GGSGASPPPPDNRPPEERYAEQLRQLNDMGFYDFDRNVAALRRSGGSVQGAIE”: the “transcriptional activation domain activity” value amounted to 29100.
To “EKPAEAAPAEAIPAEPEAVEEEKPKSPAPTPAAAPAKGTTPSPEKENVAPAKA” belongs 24800; to “KDKNKEKERGKHKHRRRERDGDGDGDEEDGRSSKKHKKERGQKRSEKEGGGED”, 42100; to “SLVAATATAVEAEPPQPVKRPRGRPKKDATVASSPKPARATKAKAKAKAAVPP”, 24700.
“FFFFVIFSLFHLPFACIFRFFPNDLFACYLYSPFFFPIDFCPFALFPPFFLSF”: the “transcriptional activation domain activity” value is 59500.
The value for “LADNKFSYLPPTLEELMEEQDCNNGRSFKNFMFSNDTGIDGSAGTDDDYTKVL” was 60000; that for “RHLSIRLCEIGLIIFAHGLHVHNAYSHLYICLHVVTSRYLYGSHCMVCQLLFY” was 75800; that for “MYCFIILYMYILLLFFSRSVYFSLFFFFFCLHFYSIFFFFICSLFIYLFIYLF” was 63500.
As to “EVDEAAVKMVKRARRERRAAEKEASGEAEHAAGVEKKPKRRSSRKKKEEGEGG”, the “transcriptional activation domain activity” value is 31400.
The value for “MAVETVGLGWRTLRSLIIEFILFYCLFTALGYNSLSLLNYRPWIFFSFLFCLF” was 57500.
“MYCMRYFVPLLLLPFPDAPPVFVILFLISFFLHQKPCIYCTLLLIALFCSTCY”: the “transcriptional activation domain activity” value was found to be 72300.
Take “EGEVTTTSSEEETTTEEETTRTRPTRTTTTEEEQTTTDASSTTTSQDEETTTP”: the “transcriptional activation domain activity” value was 39200.
The value for “LNKVCCIFCFLFSFYLLSFYSPFYFCFAFILLLSFFFFFFFFLLLLYFLLLSI” was 48600; that for “MPPVAKQKRSAADRAKGASRAKSGCYTCRIRRKKCDEERDEHDHCRTCTRLRL” was 23700; that for “YSPLYLAITFAVQYGISFTSMTAVVVRTILWYRHDITWTFTLIYSSLGVAAFV” was 63700.
The value for “ESERHSRRRKSVKGKGKAKEVQKKRASKDKTSKRKGKGEKRKRGEEEGRSANK” was 60200; that for “KKPPARLLAKKAPAAAAGGEEGSSKSAAKPAAPPVKKVVPAAAAAKPAKGGAP” was 28400; that for “MLTEFCFNMLGRHDGKGLISNAVLNAWLKQLSDYFRARFTIWCRINILMDLYR” was 42100.
To “TLLASFVIDHLKEGVASDEIVLFAFADFQDTRSTNVVVLLRTLLAQLLDRCKP” belongs 65200; to “ELLRVLNKAHIYLMCLYLFSGLDAHMGILRDFKLIDSHYRLSLHTLICVLVSW”, 71000; to “MLLKVSEPFSLFVYISGSAITLFSFFKFLFSLFFLLLILFFFPLFFFFPIVIV”, 80000.
Take “FTRHLSKEEIDVVVDCVWRASKLRNCTRVTVMECCVRTAPWFNSDGVICAYIM”: the “transcriptional activation domain activity” value was determined as 49700.
The value for “GAAEVDAAAPEGAETIEGAPAATEKQPRPPKKPRTPRPRRPAGEEPAGEPSKN” was 29700; that for “TVSDEAIEVCVAAQAREGEANKSVREVIAEALNVPKSDVEIAKGMKSREKTVA” was 25700.
For “MFGRPYCFGFVVYLFVGCFAVLSVVCSFFFFPLLPLLVVVILLKVVFSFVRAD”, the “transcriptional activation domain activity” value was determined as 29100.
On to “AQPKTEAPKKVAKPRAKKGEAAEGEVKKGGRGKKRSAEGEEKAEEKAEDKPAE”, for which the “transcriptional activation domain activity” value came out at 30600.
For “TEYIYQGSNGLRWPPLAFPEHFVYPTEYIAHVYSWLILGLSYVYLLLLVFFYY”, the “transcriptional activation domain activity” value was found to be 46100.
The value for “LLYLGCRWCTLIAIIFHFLGFDGGHRIDCQFMGYFSFTCASALIVLRIVAFWA” was 66900; that for “QRKLLWMCVHNIESLVCLGTGRGISSKITDNMLGMLISTKIFNLAEAGLRLEI” was 67000; that for “LFFIAVSQLGFVCSYLVFISGNLVNVVDVLSSCAAHLDQKYYIWIPLILVLPL” was 59900.
The value for “ENKKEEPKSAKPTSKKAEKPVSKKADAETGEKRAADETKPAEKPASKKAKTDA” was 30800.
To “EYLDKLLAEFEEFDYSINRVLPDVIDFSALIGQDSSANNQIFSSEFSSDPTVN” belongs 139000; to “NAEYICHYKGGLIGKHFKSLAQVMPFLIQDLLLRTVLDGWTCIGELVVYVWHM”, 65800.
For “VGEWMGGGVGCLAAWLGHGIRIFGGTEYWLVPEFFFPLFLFFSFPPWSLVLFC”, the “transcriptional activation domain activity” value came to 74100.
For the sequence “MLIILLSSLVLWRLGSPCFFYTLFLFYISERSISQLPPPPTLLSILFFFTFIA”, the “transcriptional activation domain activity” value was 53100.
To “MCIFFCPVSSLEVIWSVFLVFFYGYIFFTFFFLQCRSMVLIIPFLFTLVFHIF” belongs 42700.
The value for “VGLKWGMGRDKSFSFTSKLNNPQFLGSLDLEILEELEKLISAQEFSRNFTEDV” was 70100.
With “GAVMPILMQFFFIMAWNGICNGMHLYAAYNLRTHVLARLFWSILWPLLSSLCS”, the “transcriptional activation domain activity” value turned out to be 59900.
To “MHFFSFFFLCFYFYFLSSLLGSMDYTALYFPFFFCSNYRRCYMCFLVEPFFFL” belongs 78500; to “WLILIRIINPIIMYFFVSCFYSLLSLAFQVPFNRFYGSSGFVIYWMMSWMAMC”, 47100.
The value for “FFLCTFTFFSFCLHLFLFLCVYRLYPTFCSVYPFFPFPILLLFIWLFMWFFIS” was 71800.
To “DLLFNVAAFVFVGAWTPFNQFSDPALSLSVWRLIVIAILVLLLRRLPAIIALY” belongs 27800.
Regarding “MLYVRCVISYIHIYNIFIHVTVSVHPEWWAFVSLTCFTLHVYLLHFLSAVARC”, the “transcriptional activation domain activity” value was 67000.
The value for “LTDIQRASKLFRVMQDFRYLRLLVHRITLWIDDQHCASLGTNIYYTFLMRGRF” was 53200; that for “TKLCTIGINCIFIIWHIADILIESPSHLPDIFTVFNVIISCSLFLLLFVYFVY” was 27600; that for “MLVLLLLLLLLLLLLFLLLPLLLLLPLLLCLYMPCIVRCSNHEVHILLISGTG” was 72900.
To “LLVFICAAPYAAYREGNNLIVSSYFCSSFLVFNFYMRLDCGLSWMKHTLLFIV” belongs 44700.
To “AILDLAFYIRWQNNNYHLAPSIPLSKMYSNSLLVVLNARIKIVGGRNEYKTNS” belongs 31900; to “QESVYIEVISYIGLIFDWFWYYILMNLSVFIWLACMYYTIFLYGFLEAYFPEK”, 33000; to “VGLVGMSLSILGKDHLVWNALAACRTEISEVFERMLRALYHWMIDVAHQYCGK”, 56300.
Turning to “LLVANLTILDTFGLEESAIRIWNVCKPLGHLGQNALLILMLRLKDTMLIPWPL”, the “transcriptional activation domain activity” value stood at 72200.
To “SEESEGETGGKRKRKASSSSGRGEKGKKSKRGGGPEARTRKRKAAAETAETGE” belongs 23500.
The value for “HTFVRICKLAGDLIDWVGMCVDCGKCSATQGRDCLDVIMRLSIMAVHGLRFVG” was 51400; that for “FNLYLLSWLHLLSSKSSSLGNSSAWWIRPVEITMMSCYWYIFGYLLLWCTLPT” was 38200; that for “PSLLVLAAHTLAKHGVLAPMSTLITRFLELPFQIKRPQLYYNLLLHAISRFPS” was 70100.
Consider “IGTSSTGDLECCLFTLLLFSWFWGLQTFLSICYYYGSFVSQAFFFFFHFFFFW”, for which the “transcriptional activation domain activity” value amounted to 53800.
On to “HSQYMGYFGGYLVCHLWFTHRFVGMLRLGVVDVVWRFCVYLGLVGWSLGVCYS”, for which the “transcriptional activation domain activity” value amounted to 72500.
To “HQVYTDWLYLWCLTYFARAHDQVLIILKKSLKHIPIVGWGMQFFRFLFLARSW” belongs 31700; to “LVLVAILGIVIPLDGFFGYLLTSLAIIWCSYSSSSMFTVVGRMSSMKWLVAYP”, 57000.
Turning to “MSSTKRPAEEEEPVIHEEDEPGKPDSAAAPAPKRRGRPPGSKNKKTIAAEAAA”, the “transcriptional activation domain activity” value came out at 32700.
The value for “KFIGYQWAYFAVISGALLYAWSRVIMLFVLRILPQDIRLIAFIITSIYCLILL” was 24900; that for “VYPENYETASVNTERDMELLVGHFDFMAKEAFLADSISLCSTEEELERRLDTP” was 102000; that for “SFSLSVLSFFFFSIWLPLPPLSLSLSLFSPHLFPPLPFTLSLWVQWLYTFSYY” was 79300.
To “PLVVDFPQAVEYFPEMALKYMMCWLSRFDLLPGERLGCRVLAAFIHLTIHRVS” belongs 57200.
